According to publication PMC8336515, “OTUD7B Deubiquitinates LSD1 to Govern Its Binding Partner Specificity, Homeostasis, and Breast Cancer Metastasis” (Advanced Science, 2021):

Target: recombinant LSD1 (UniProt O60341 1-852)
Experiment: pull-down; recombinant proteins in vitro (Figure S1F); GST fusion on glutathione-sepharose beads, NETN buffer, 4 °C for 2 h
Details: both partners purified

B1: recombinant OTUD7B (enzyme)
chain: MTLDMDAVLSDFVRSTGAEPGLARDLLEGKNWDVNAALSDFEQLRQVHAGNLPPSFSEGSGGSRTPEKGFSDREPTRPPRPILQRQDDIVQEKRLSRGISHASSSIVSLARSHVSSNGGGGGSNEHPLEMPICAFQLPDLTVYNEDFRSFIERDLIEQSMLVALEQAGRLNWWVSVDPTSQRLLPLATTGDGNCLLHAASLGMWGFHDRDLMLRKALYALMEKGVEKEALKRRWRWQQTQQNKESGLVYTEDEWQKEWNELIKLASSEPRMHLGTNGANCGGVESSEEPVYESLEEFHVFVLAHVLRRPIVVVADTMLRDSGGEAFAPIPFGGIYLPLEVPASQCHRSPLVLAYDQAHFSALVSMEQKENTKEQAVIPLTDSEYKLLPLHFAVDPGKGWEWGKDDSDNVRLASVILSLEVKLHLLHSYMNVKWIPLSSDAQAPLAQPESPTASAGDEPRSTPESGDSDKESVGSSSTSNEGGRRKEKSKRDREKDKKRADSVANKLGSFGKTLGSKLKKNMGGLMHSKGSKPGGVGTGLGGSSGTETLEKKKKNSLKSWKGGKEEAAGDGPVSEKPPAESVGNGGSKYSQEVMQSLSILRTAMQGEGKFIFVGTLKMGHRHQYQEEMIQRYLSDAEERFLAEQKQKEAERKIMNGGIGGGPPPAKKPEPDAREEQPTGPPAESRAMAFSTGYPGDFTIPRPSGGGVHCQEPRRQLAGGPCVGGLPPYATFPRQCPPGRPYPHQDSIPSLEPGSHSKDGLHRGALLPPPYRVADSYSNGYREPPEPDGWAGGLRGLPPTQTKCKQPNCSFYGHPETNNFCSCCYREELRRREREPDGELLVHRF
notes: OTUD7B; cDNA in pGEX4T1 (GST) or pET21b (His); also called GST-OTUD7B; His-OTUD7B; source: recombinant; GST fusions expressed in BL21 and purified by glutathione-sepharose beads; not shown: GST or His (GST-OTUD7B and His-OTUD7B were both cloned)
binding result: binds
